“And” between values parts separate entries of the source, which are not always exact repeats. Equal entries are not always repeated.
What was measured:
[1] = Total turnovers and regio-/stereoselectivity of P450 variants in artemisinin hydroxylation (analytical scale); assay type: biochemical; settings: for regioselectivity toward 6a-hydroxylation: artemisinin as substrate; for Product distribution (%) 4: share of 6a-hydroxy-ART (4); for Product distribution (%) 4 / Product distribution (%) 3 / Product distribution (%) 2: 0.5 mM artemisinin, 0.5-1 μM P450, 12 hours; for Product distribution (%) 3: share of 7(R)-hydroxy-ART (3); for Product distribution (%) 2: share of 7(S)-hydroxy-ART (2); for TTN: total turnovers on artemisinin, NADPH cofactor regeneration system, analytical scale
Procedure: Determination of Total Turnovers and Regio- and Stereoselectivity of the P450 Variants.
After 12 hours, 9-fluorenone was added to the mixtures as internal standard. The hydroxylation products were functionalized with benzoyl chloride followed by HPLC analysis. TTN values were calculated based on the total amount of hydroxylated products in the reactions as quantified based on the calibration curves generated using purified 2-4. The enzyme regio- and stereoselectivity was determined based on the area under the curve of the chromatographic peaks corresponding to the hydroxylation products 2, 3, and 4. Mean and standard deviation values reported for P450 variants in Table 1 were calculated from experiments performed at least in triplicate.

[2] = assay type: biochemical; settings: 250 μM artemisinin, rates measured over initial 30 seconds
Procedure: Measurement of Product Formation Rates and Coupling Efficiency.
Initial product formation rates were measured from 1 mL-scale reactions containing 250 μM artemisinin, 0.1-0.5 μM purified P450, and 200 μM NADPH in potassium phosphate buffer (50 mM, pH 8.0) at room temperature. After 30 seconds, the samples were extracted with dichloromethane and subjected to benzoyl chloride derivatization followed by HPLC analysis as described above. Cofactor oxidation rate in the presence of artemisinin was measured by monitoring NADPH depletion at 340 nm (ε=6.22 mM^−1 cm^−1) using 0.1 μM purified P450, 250 μM artemisinin, and 200 μM NADPH. Coupling efficiency was calculated from the ratio between the initial product formation rate and the initial NADPH oxidation rate. Reported mean and standard deviation values were calculated from experiments performed at least in triplicate.

[3] = KD for artemisinin binding to P450 variants (heme spin-shift titration); settings: binding of artemisinin to 3 μM purified P450, pH 8.0
Procedure: Determination of KD Values for Artemisinin Binding.
Binding experiments were performed using 3 μM purified P450 in potassium phosphate buffer (50 mM, pH 8.0) by titrating increasing amounts of artemisinin (5 μM to 1 mM) from an ethanol stock solution (50 mM). At each concentration, a difference spectrum from 350 to 500 nm was recorded and binding curves were generated by plotting the change in absorbance at 390 nm and 420 nm corresponding to the high-spin and low-spin state of the enzyme, respectively, against the artemisinin concentration. KD values were calculated using Sigma Plot via non-linear fitting of the experimental binding curves to an equation describing a standard 1:1 binding interaction. Reported mean and standard deviation values were calculated from experiments performed at least in triplicate.

B1: FL#62: CYP102A1-derived engineered P450 variant (SEQ ID NO. 8) (protein)
chain: MTIKEMPQPKTFGELKNLPLLNTDKPVQALMKIADELGEIFKFEAPGRVTRYLSSQRLIKEACDESRFDKNLSQALKFARDSVGDGLATSWTHEKNWKKAHNILLPSFSQQAMKGYHAMMVDIAVQLVQKWERLNADEHIEVSEDMTRLTLDTIGLCGFNYRFNSFYRDQPHPFIISMVRTLDEVMNKLQRANPDDPVYDENKRQCQEDIKVMNDLVDKIIADRKARGEQSDDLLTQMLNGKDPETGEPLDDGNISYQIITFLIAGHETTSGLLSFALYFLVKNPHVLQKVAEEAARVLVDPVPSYKQVKQLKYVGMVLNEALRLWPTAPAFSLYAKEDTVLGGEYPLEKGDEVMVLIPQLHRDKTIWGDDVEEFRPERFENPSAIPQHAFKPFGNGQRACIGQQFALHEATLVLGMMLKHFDFEDHTNYELDIKETLTLKPEGFVVKAKSKKIPLGGIPSPSTEQSAKKVRKKAENAHNTPLLVLYGSNMGTAEGTARDLADIAMSKGFAPQVATLDSHAGNLPREGAVLIVTASYNGHPPDNAKQFVDWLDQASADEVKGVRYSVFGCGDKNWATTYQKVPAFIDETLAAKGAENIADRGEADASDDFEGTYEEWREHMWSDVAAYFNLDIENSEDNKSTLSLQFVDSAADMPLAKMHGAFSTNVVASKELQQPGSARSTRHLEIELPKEASYQEGDHLGVIPRNYEGIVNRVTARFGLDASQQIRLEAEEEKLAHLPLAKTVSVEELLQYVELQDPVTRTQLRAMAAKTVCPPHKVELEALLEKQAYKEQVLAKRLTMLELLEKYPACEMKFSEFIALLPSIRPRYYSISSSPRVDEKQASITVSVVSGEAWSGYGEYKGIASNYLAELQEGDTITCFISTPQSEFTLPKDPETPLIMVGPGTGVAPFRGFVQARKQLKEQGQSLGEAHLYFGCRSPHEDYLYQEELENAQSEGIITLHTAFSRMPNQPKTYVQHVMEQDGKKLIELLDQGAHFYICGDGSQMAPAVEATLMKSYADVHQVSEADARLWLQQLEEKGRYAKDVWAG
For B1, the “regioselectivity toward 6a-hydroxylation” value [1] was 7%, the “Product distribution (%) 4” value [1] was 7% and the “Product distribution (%) 3” value [1] was 10%. For the same molecule, the “Product distribution (%) 2” value [1] was 83%, the Product formation rate [2] was 316 ± 20 Mole product per mole P450 per minute and the Kd [3] was 29 ± 5 µM.

B2: X-F11: II-E2-derived P450 variant (SEQ ID NO. 15), 6a-hydroxylating (protein)
chain: MTIKEMPQPKTFGELKNLPLLNTDKPVQALMKIADELGEIFKFEAPGRVTRYLSSQRLIKEACDESRFDKNLSQTLKFNRDFAGDGLATSWTHEKNWKKAHNILLPSFSQQAMKGYHAMMVDIAVQLVQKWERLNADEHIEVSEDMTRLTLDTIGLCGFNYRFNSFYRDQPHPFIISMVRALDESMNKLQRANPDDPVYDENKRQCQEDIKVMNDLVDKIIADRKARGEQSDDLLTQMLNGKDPETGEPLDDGNISYQIITFLIAGHETTSGLLSFALYFLVKNPHVLQKVAEEAARVLVDPVPSYKQVKQLKYVGMVLNEALRLWPTAPAFSLYAKEDTVLGGEYPLEKGDEVMVLIPQLHRDKTIWGDDVEEFRPERFENPSAIPQHAFKPFGNGQRACIGQQFALHEATLVLGMMLKHFDFEDHTNYELDIKETLTLKPEGFVVKAKSKKIPLGGIPSPSTEQSAKKVRKKAENAHNTPLLVLYGSNMGTAEGTARDLADIAMSKGFAPQVATLDSHAGNLPREGAVLIVTASYNGHPPDNAKQFVDWLDQASADEVKGVRYSVFGCGDKNWATTYQKVPAFIDETLAAKGAENIADRGEADASDDFEGTYEEWREHMWSDVAAYFNLDIENSEDNKSTLSLQFVDSAADMPLAKMHGAFSTNVVASKELQQPGSARSTRHLEIELPKEASYQEGDHLGVIPRNYEGIVNRVTARFGLDASQQIRLEAEEEKLAHLPLAKTVSVEELLQYVELQDPVTRTQLRAMAAKTVCPPHKVELEALLEKQAYKEQVLAKRLTMLELLEKYPACEMKFSEFIALLPSIRPRYYSISSSPRVDEKQASITVSVVSGEAWSGYGEYKGIASNYLAELQEGDTITCFISTPQSEFTLPKDPETPLIMVGPGTGVAPFRGFVQARKQLKEQGQSLGEAHLYFGCRSPHEDYLYQEELENAQSEGIITLHTAFSRMPNQPKTYVQHVMEQDGKKLIELLDQGAHFYICGDGSQMAPAVEATLMKSYADVHQVSEADARLWLQQLEEKGRYAKDVWAG
For B2, the “regioselectivity toward 6a-hydroxylation” value [1] was 92%, the “Product distribution (%) 4” value [1] was 92% and the “Product distribution (%) 3” value [1] was 8%. The “Product distribution (%) 2” value [1] was 0%, the TTN [1] was 376 ± 19 and the Product formation rate [2] was 56 ± 2 Mole product per mole P450 per minute. For the same molecule, the Kd [3] was 234 ± 29 µM.

B3: V-H2: FL#62-derived P450 variant (SEQ ID NO. 10) (protein)
chain: MTIKEMPQPKTFGELKNLPLLNTDKPVQALMKIADELGEIFKFEAPGRVTRYLSSQRLIKEACDESRFDKNLSQALKFSRDIAGDGLATSWTHEKNWKKAHNILLPSFSQQAMKGYHAMMVDIAVQLVQKWERLNADEHIEVSEDMTRLTLDTIGLCGFNYRFNSFYRDQPHPFIISMVRTLDEVMNKLQRANPDDPVYDENKRQCQEDIKVMNDLVDKIIADRKARGEQSDDLLTQMLNGKDPETGEPLDDGNISYQIITFLIAGHETTSGLLSFALYFLVKNPHVLQKVAEEAARVLVDPVPSYKQVKQLKYVGMVLNEALRLWPTAPAFSLYAKEDTVLGGEYPLEKGDEVMVLIPQLHRDKTIWGDDVEEFRPERFENPSAIPQHAFKPFGNGQRACIGQQFALHEATLVLGMMLKHFDFEDHTNYELDIKETLTLKPEGFVVKAKSKKIPLGGIPSPSTEQSAKKVRKKAENAHNTPLLVLYGSNMGTAEGTARDLADIAMSKGFAPQVATLDSHAGNLPREGAVLIVTASYNGHPPDNAKQFVDWLDQASADEVKGVRYSVFGCGDKNWATTYQKVPAFIDETLAAKGAENIADRGEADASDDFEGTYEEWREHMWSDVAAYFNLDIENSEDNKSTLSLQFVDSAADMPLAKMHGAFSTNVVASKELQQPGSARSTRHLEIELPKEASYQEGDHLGVIPRNYEGIVNRVTARFGLDASQQIRLEAEEEKLAHLPLAKTVSVEELLQYVELQDPVTRTQLRAMAAKTVCPPHKVELEALLEKQAYKEQVLAKRLTMLELLEKYPACEMKFSEFIALLPSIRPRYYSISSSPRVDEKQASITVSVVSGEAWSGYGEYKGIASNYLAELQEGDTITCFISTPQSEFTLPKDPETPLIMVGPGTGVAPFRGFVQARKQLKEQGQSLGEAHLYFGCRSPHEDYLYQEELENAQSEGIITLHTAFSRMPNQPKTYVQHVMEQDGKKLIELLDQGAHFYICGDGSQMAPAVEATLMKSYADVHQVSEADARLWLQQLEEKGRYAKDVWAG
In the case of B3, the “Product distribution (%) 4” value [1] is reported as 4%, the “Product distribution (%) 3” value [1] is reported as 0% and the “Product distribution (%) 2” value [1] is reported as 96%. For the same molecule, the TTN [1] was 434 ± 21, the Product formation rate [2] was 41 ± 2 Mole product per mole P450 per minute and the Kd [3] was 45 ± 10 µM.

B4: X-E12: II-E2-derived P450 variant (SEQ ID NO. 14), 6a-hydroxylating (protein)
chain: MTIKEMPQPKTFGELKNLPLLNTDKPVQALMKIADELGEIFKFEAPGRVTRYLSSQRLIKEACDESRFDKNLSQVLKFNRDFAGDGLATSWTHEKNWKKAHNILLPSFSQQAMKGYHAMMVDIAVQLVQKWERLNADEHIEVSEDMTRLTLDTIGLCGFNYRFNSFYRDQPHPFIISMVRTADETMNKLQRANPDDPVYDENKRQCQEDIKVMNDLVDKIIADRKARGEQSDDLLTQMLNGKDPETGEPLDDGNISYQIITFLIAGHETTSGLLSFALYFLVKNPHVLQKVAEEAARVLVDPVPSYKQVKQLKYVGMVLNEALRLWPTAPAFSLYAKEDTVLGGEYPLEKGDEVMVLIPQLHRDKTIWGDDVEEFRPERFENPSAIPQHAFKPFGNGQRACIGQQFALHEATLVLGMMLKHFDFEDHTNYELDIKETLTLKPEGFVVKAKSKKIPLGGIPSPSTEQSAKKVRKKAENAHNTPLLVLYGSNMGTAEGTARDLADIAMSKGFAPQVATLDSHAGNLPREGAVLIVTASYNGHPPDNAKQFVDWLDQASADEVKGVRYSVFGCGDKNWATTYQKVPAFIDETLAAKGAENIADRGEADASDDFEGTYEEWREHMWSDVAAYFNLDIENSEDNKSTLSLQFVDSAADMPLAKMHGAFSTNVVASKELQQPGSARSTRHLEIELPKEASYQEGDHLGVIPRNYEGIVNRVTARFGLDASQQIRLEAEEEKLAHLPLAKTVSVEELLQYVELQDPVTRTQLRAMAAKTVCPPHKVELEALLEKQAYKEQVLAKRLTMLELLEKYPACEMKFSEFIALLPSIRPRYYSISSSPRVDEKQASITVSVVSGEAWSGYGEYKGIASNYLAELQEGDTITCFISTPQSEFTLPKDPETPLIMVGPGTGVAPFRGFVQARKQLKEQGQSLGEAHLYFGCRSPHEDYLYQEELENAQSEGIITLHTAFSRMPNQPKTYVQHVMEQDGKKLIELLDQGAHFYICGDGSQMAPAVEATLMKSYADVHQVSEADARLWLQQLEEKGRYAKDVWAG
With B4 the “regioselectivity toward 6a-hydroxylation” value [1] was 94%, the “Product distribution (%) 4” value [1] was 94% and the “Product distribution (%) 3” value [1] was 2%. The “Product distribution (%) 2” value [1] was 4%, the TTN [1] was 113 and 113 ± 12 and the Product formation rate [2] was 72 ± 3 Mole product per mole P450 per minute. The Kd [3] was 300 ± 24 µM.
